The text below walks through data of the supplement of paper PMC5998384.

Data set [1] relates to HeLa Kyoto. Kind of data set: solubility in G1/S (NP-40 vs SDS abundance) (log2 ratio); higher = more soluble. Particulars: cell cycle stage: G1/S.
In data set [2] the test system is HeLa Kyoto. Kind of data set: melting temperature (median over replicates), in situ; higher = more thermally stable.
For data set [3], the system named is HeLa Kyoto. Kind of data set: solubility change mitosis vs G1/S (difference of NP-40 vs SDS log2 ratios) (log2 ratio difference); higher = more soluble in mitosis.
Data set [4] relates to HeLa Kyoto. Kind of data set: thermal stability score vs G1/S (z-score of summed log2 fold changes over temperatures); higher = more thermally stable than in G1/S.
[5] abbreviates: cell cycle stage: early G1 (4.5 h after nocodazole release).
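Wherever melting temperature (median over replicates), in situ is given: HeLa Kyoto cells synchronized by double thymidine or nocodazole block, proteins quantified by TMT10plex mass spectrometry, three independent biological replicates.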
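Wherever solubility change mitosis vs G1/S (difference of NP-40 vs SDS log2 ratios) is given: synchronized HeLa Kyoto cells (double thymidine block for G1/S, nocodazole release for mitosis), protein amounts in NP-40 versus SDS lysates quantified by mass spectrometry, three biological replicates.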
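Wherever solubility in G1/S (NP-40 vs SDS abundance) is given: HeLa Kyoto cells arrested at G1/S by double thymidine block, proteins quantified by TMT10plex mass spectrometry in mild NP-40 versus SDS extracts, three biological replicates.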
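Wherever thermal stability score vs G1/S (z-score of summed log2 fold changes over temperatures) is given: synchronized HeLa Kyoto cells, proteins quantified by TMT10plex mass spectrometry, three biological replicates, mitosis taken 0.5 h after nocodazole release, G1/S directly after double thymidine block.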

Sequence of PSME2 (chain, as listed by the source): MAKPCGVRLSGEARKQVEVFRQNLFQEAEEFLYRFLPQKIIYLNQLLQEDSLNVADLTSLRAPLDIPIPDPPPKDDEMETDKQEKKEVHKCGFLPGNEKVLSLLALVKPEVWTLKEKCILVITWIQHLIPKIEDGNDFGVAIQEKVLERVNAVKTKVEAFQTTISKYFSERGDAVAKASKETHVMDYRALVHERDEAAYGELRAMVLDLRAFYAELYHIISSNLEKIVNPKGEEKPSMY

With PSME2, in the data set on HeLa Kyoto [1], the “solubility in G1/S (log2)” value came to 0.142. The melting temperature in the data set with HeLa Kyoto [2] (cell cycle stage: G1/S) is 52.8 °C; in the data set with HeLa Kyoto [2] (cell cycle stage: mitosis) it was 53.8 °C. In addition, the “solubility change mitosis (log2)” value in the data set with HeLa Kyoto [3] amounted to 0.0782. The thermal stability score is -0.487 with HeLa Kyoto [4] (setting [5]) and 2.4 in the data set on HeLa Kyoto [4] (cell cycle stage: mitosis).

For the substance “MESALPAAGFLYWVGAGTVAYLALRISYSLFTALRVWGVGNEAGVGPGLGEWAVVTGSTDGIGKSYAEELAKHGMKVVLISRSKDKLDQVSSEIKEKFKVETRTIAVDFASEDIYDKIKTGLAGLEIGILVNNVGMSYEYPEYFLDVPDLDNVIKKMININILSVCKMTQLVLPGMVERSKGAILNISSGSGMLPVPLLTIYSATKTFVDFFSQCLHEEYRSKGVFVQSVLPYFVATKLAKIRKPTLDKPSPETFVKSAIKTVGLQSRTNGYLIHALMGSIISNLPSWIYLKIVMNMNKSTRAHYLKKTKKN [HSD17B12]”, the “solubility in G1/S (log2)” value in the data set with HeLa Kyoto [1] was 0.079. Further, the melting temperature amounted to 53.9 °C with HeLa Kyoto [2] (cell cycle stage: G1/S) and 53.7 °C with HeLa Kyoto [2] (cell cycle stage: mitosis). In addition, the “solubility change mitosis (log2)” value with HeLa Kyoto [3] was -0.194. The thermal stability score was -1.05 in the data set with HeLa Kyoto [4] (setting [5]) and -1.18 in the data set on HeLa Kyoto [4] (cell cycle stage: mitosis).

With “MARSPGRAYALLLLLICFNVGSGLHLQVLSTRNENKLLPKHPHLVRQKRAWITAPVALREGEDLSKKNPIAKIHSDLAEERGLKITYKYTGKGITEPPFGIFVFNKDTGELNVTSILDREETPFFLLTGYALDARGNNVEKPLELRIKVLDINDNEPVFTQDVFVGSVEELSAAHTLVMKINATDADEPNTLNSKISYRIVSLEPAYPPVFYLNKDTGEIYTTSVTLDREEHSSYTLTVEARDGNGEVTDKPVKQAQVQIRILDVNDNIPVVENKVLEGMVEENQVNVEVTRIKVFDADEIGSDNWLANFTFASGNEGGYFHIETDAQTNEGIVTLIKEVDYEEMKNLDFSVIVANKAAFHKSIRSKYKPTPIPIKVKVKNVKEGIHFKSSVISIYVSESMDRSSKGQIIGNFQAFDEDTGLPAHARYVKLEDRDNWISVDSVTSEIKLAKLPDFESRYVQNGTYTVKIVAISEDYPRKTITGTVLINVEDINDNCPTLIEPVQTICHDAEYVNVTAEDLDGHPNSGPFSFSVIDKPPGMAEKWKIARQESTSVLLQQSEKKLGRSEIQFLISDNQGFSCPEKQVLTLTVCECLHGSGCREAQHDSYVGLGPAAIALMILAFLLLLLVPLLLLMCHCGKGAKGFTPIPGTIEMLHPWNNEGAPPEDKVVPSFLPVDQGGSLVGRNGVGGMAKEATMKGSSSASIVKGQHEMSEMDGRWEEHRSLLSGRATQFTGATGAIMTTETTKTARATGASRDMAGAQAAAVALNEEFLRNYFTDKAASYTEEDENHTAKDCLLVYSQEETESLNASIGCCSFIEGELDDRFLDDLGLKFKTLAEVCLGQKIDINKEIEQRQKPATETSMNTASHSLCEQTMVNSENTYSSGSSFPVPKSLQEANAEKVTQEIVTERSVSSRQAQKVATPLPDPMASRNVIATETSYVTGSTMPPTTVILGPSQPQSLIVTERVYAPASTLVDQPYANEGTVVVTERVIQPHGGGSNPLEGTQHLQDVPYVMVRERESFLAPSSGVQPTLAMPNIAVGQNVTVTERVLAPASTLQSSYQIPTENSMTARNTTVSGAGVPGPLPDFGLEESGHSNSTITTSSTRVTKHSTVQHSYS [DSG2]”, in the data set on HeLa Kyoto [1], the “solubility in G1/S (log2)” value was -0.504. Besides, the melting temperature in the data set on HeLa Kyoto [2] (cell cycle stage: G1/S) worked out at 55.1 °C; in the data set with HeLa Kyoto [2] (cell cycle stage: mitosis) it was 56 °C. Moreover, the “solubility change mitosis (log2)” value in the data set on HeLa Kyoto [3] is -0.164. Also, the thermal stability score with HeLa Kyoto [4] (setting [5]) was -1.15; in the data set on HeLa Kyoto [4] (cell cycle stage: mitosis), -1.27.

Regarding “MFGPAKGRHFGVHPAPGFPGGVSQQAAGTKAGPAGAWPVGSRTDTMWRLRCKAKDGTHVLQGLSSRTRVRELQGQIAAITGIAPGGQRILVGYPPECLDLSNGDTILEDLPIQSGDMLIIEEDQTRPRSSPAFTKRGASSYVRETLPVLTRTVVPADNSCLFTSVYYVVEGGVLNPACAPEMRRLIAQIVASDPDFYSEAILGKTNQEYCDWIKRDDTWGGAIEISILSKFYQCEICVVDTQTVRIDRFGEDAGYTKRVLLIYDGIHYDPLQRNFPDPDTPPLTIFSSNDDIVLVQALELADEARRRRQFTDVNRFTLRCMVCQKGLTGQAEAREHAKETGHTNFGEV [YOD1]”, the “solubility in G1/S (log2)” value in the data set on HeLa Kyoto [1] was 0.0787. Besides, the melting temperature in the data set on HeLa Kyoto [2] (cell cycle stage: G1/S) and with HeLa Kyoto [2] (cell cycle stage: mitosis) was 50.2 °C each time. In addition, the “solubility change mitosis (log2)” value with HeLa Kyoto [3] stood at 0.0334. The thermal stability score in the data set with HeLa Kyoto [4] (setting [5]) was determined as 0.646; with HeLa Kyoto [4] (cell cycle stage: mitosis) it was 1.06.

Take “MKSLSLLLAVALGLATAVSAGPAVIECWFVEDASGKGLAKRPGALLLRQGPGEPPPRPDLDPELYLSVHDPAGALQAAFRRYPRGAPAPHCEMSRFVPLPASAKWASGLTPAQNCPRALDGAWLMVSISSPVLSLSSLLRPQPEPQQEPVLITMATVVLTVLTHTPAPRVRLGQDALLDLSFAYMPPTSEAASSLAPGPPPFGLEWRRQHLGKGHLLLAATPGLNGQMPAAQEGAVAFAAWDDDEPWGPWTGNGTFWLPTVQPFQEGTYLATIHLPYLQGQVTLELAVYKPPKVSLMPATLARAAPGEAPPELLCLVSHFYPSGGLEVEWELRGGPGGRSQKAEGQRWLSALRHHSDGSVSLSGHLQPPPVTTEQHGARYACRIHHPSLPASGRSAEVTLEVAGLSGPSLEDSVGLFLSAFLLLGLFKALGWAAVYLSTCKDSKKKAE [TAPBP]”: the “solubility in G1/S (log2)” value in the data set on HeLa Kyoto [1] is 0.297. The results for the melting temperature in the data set with HeLa Kyoto [2] (cell cycle stage: G1/S) and in the data set with HeLa Kyoto [2] (cell cycle stage: mitosis) were 52.5 °C and 53 °C, respectively. In the data set with HeLa Kyoto [3], the “solubility change mitosis (log2)” value was 0.000151. Moreover, the thermal stability score was 0.903 in the data set with HeLa Kyoto [4] (setting [5]) and 1.98 in the data set on HeLa Kyoto [4] (cell cycle stage: mitosis).
